Measurements reported in patent publication US20230065782.

What was measured:
[1] = test system: control peptide, an HES-bearing peptide of the same length, with the same labeling, that does not contain the conformation-dependent cleavage site
[2] = test system: eighteen amino acid peptide containing the amino acid sequence PLGIA, covalently labeled with the same fluorophore near each end (HES structure)

matrix metalloprotease-9 (MMP-9) was tested, and the “fluorescence intensity on addition of the MMP” value [1] was “The fluorescence of the latter does not increase upon addition of the MMP”, the “fluorescence intensity on cleavage of the HES peptide (peptide at 2 uM, pH 7.5 buffer)” value [2] was “Cleavage of the peptide gives rise to an increase in fluorescence intensity” and the “reverse-phase HPLC retention time of the peptide before and after exposure to the protease” value [2] was “After exposure to MMP-9, the major peaks were at ca. 30 and 31 minutes with the almost complete disappearance of the 38 minute peak”.
